Measurements taken from US20170210787A1 (Janssen / Centocor, published 2017).
Read-outs that look alike come from different tables or passages of the source.

Tests used:
tau 299-369 [1] = target: tau 299-369 (human); assay: ELISA on biotinylated peptide captured on streptavidin plate, IgG titrated [a]
tau 299-369 [2] = target: tau 299-369 (human); assay: as above; remark: listed apart in the source
tau 299-369 [3] = target: tau 299-369 (human); assay: peptide ELISA, 1 ug/mL
tau 299-369 [4] = target: tau 299-369 (human); assay: peptide ELISA, 1 ug/mL; remark: listed apart in the source

EC50 (read off the curve) (tau 299-369 [1]): ~0.2 µg/mL | EC50 (read off the curve) (tau 299-369 [2]): ~0.1 µg/mL | OD450 (tau 299-369 [3]): > 1.5 od | OD450 (tau 299-369 [4]): 1 to 1.5 od
B1: CBTAU-27.1 (antibody, V domains shown)
VH: QVQLVESGPEMRKPGESLKISCKTSGYIFSDYWTAWVRQLPGKGLQWMGIIYSGDSDTRYHPSVQGHVTMSTDSSLTTAYLQWSSLKASDTGIYYCARLDARVDAGWQLDSWGQGTLVTVSS
VL: DIQLTQSPDSLAVSLGERATINCKSSQSVFSRDNNKNYLAWYQHKSGQPPKLLFFWASSRESGVSDRFSGSGSGTDFTLTIDNLQAEDVALYYCQHYFNTPHNFGQGTKLEIK
